Holding throughout (assay): cell-based or functional assay
The target in assay [1] is hNav1.8 (human) (UniProt Q9Y5Y9).
The target in assay [2] is hNav1.2 (human) (UniProt Q99250).
In assay [3] the target is hNav1.1 (human) (UniProt P35498).
The target of assay [4] is hNav1.4 (human) (UniProt P35499).
The target in assay [5] is hNav1.6 (human) (UniProt Q9UQD0).
The target in assay [6] is hNav1.5 (human) (UniProt Q14524).
In assay [7] the target is hNav1.3 (human) (UniProt Q9NY46).

Where only a bound is given, the exact number is not on record here.

Chain of hNav1.6 (human) (Q9UQD0 whole entry): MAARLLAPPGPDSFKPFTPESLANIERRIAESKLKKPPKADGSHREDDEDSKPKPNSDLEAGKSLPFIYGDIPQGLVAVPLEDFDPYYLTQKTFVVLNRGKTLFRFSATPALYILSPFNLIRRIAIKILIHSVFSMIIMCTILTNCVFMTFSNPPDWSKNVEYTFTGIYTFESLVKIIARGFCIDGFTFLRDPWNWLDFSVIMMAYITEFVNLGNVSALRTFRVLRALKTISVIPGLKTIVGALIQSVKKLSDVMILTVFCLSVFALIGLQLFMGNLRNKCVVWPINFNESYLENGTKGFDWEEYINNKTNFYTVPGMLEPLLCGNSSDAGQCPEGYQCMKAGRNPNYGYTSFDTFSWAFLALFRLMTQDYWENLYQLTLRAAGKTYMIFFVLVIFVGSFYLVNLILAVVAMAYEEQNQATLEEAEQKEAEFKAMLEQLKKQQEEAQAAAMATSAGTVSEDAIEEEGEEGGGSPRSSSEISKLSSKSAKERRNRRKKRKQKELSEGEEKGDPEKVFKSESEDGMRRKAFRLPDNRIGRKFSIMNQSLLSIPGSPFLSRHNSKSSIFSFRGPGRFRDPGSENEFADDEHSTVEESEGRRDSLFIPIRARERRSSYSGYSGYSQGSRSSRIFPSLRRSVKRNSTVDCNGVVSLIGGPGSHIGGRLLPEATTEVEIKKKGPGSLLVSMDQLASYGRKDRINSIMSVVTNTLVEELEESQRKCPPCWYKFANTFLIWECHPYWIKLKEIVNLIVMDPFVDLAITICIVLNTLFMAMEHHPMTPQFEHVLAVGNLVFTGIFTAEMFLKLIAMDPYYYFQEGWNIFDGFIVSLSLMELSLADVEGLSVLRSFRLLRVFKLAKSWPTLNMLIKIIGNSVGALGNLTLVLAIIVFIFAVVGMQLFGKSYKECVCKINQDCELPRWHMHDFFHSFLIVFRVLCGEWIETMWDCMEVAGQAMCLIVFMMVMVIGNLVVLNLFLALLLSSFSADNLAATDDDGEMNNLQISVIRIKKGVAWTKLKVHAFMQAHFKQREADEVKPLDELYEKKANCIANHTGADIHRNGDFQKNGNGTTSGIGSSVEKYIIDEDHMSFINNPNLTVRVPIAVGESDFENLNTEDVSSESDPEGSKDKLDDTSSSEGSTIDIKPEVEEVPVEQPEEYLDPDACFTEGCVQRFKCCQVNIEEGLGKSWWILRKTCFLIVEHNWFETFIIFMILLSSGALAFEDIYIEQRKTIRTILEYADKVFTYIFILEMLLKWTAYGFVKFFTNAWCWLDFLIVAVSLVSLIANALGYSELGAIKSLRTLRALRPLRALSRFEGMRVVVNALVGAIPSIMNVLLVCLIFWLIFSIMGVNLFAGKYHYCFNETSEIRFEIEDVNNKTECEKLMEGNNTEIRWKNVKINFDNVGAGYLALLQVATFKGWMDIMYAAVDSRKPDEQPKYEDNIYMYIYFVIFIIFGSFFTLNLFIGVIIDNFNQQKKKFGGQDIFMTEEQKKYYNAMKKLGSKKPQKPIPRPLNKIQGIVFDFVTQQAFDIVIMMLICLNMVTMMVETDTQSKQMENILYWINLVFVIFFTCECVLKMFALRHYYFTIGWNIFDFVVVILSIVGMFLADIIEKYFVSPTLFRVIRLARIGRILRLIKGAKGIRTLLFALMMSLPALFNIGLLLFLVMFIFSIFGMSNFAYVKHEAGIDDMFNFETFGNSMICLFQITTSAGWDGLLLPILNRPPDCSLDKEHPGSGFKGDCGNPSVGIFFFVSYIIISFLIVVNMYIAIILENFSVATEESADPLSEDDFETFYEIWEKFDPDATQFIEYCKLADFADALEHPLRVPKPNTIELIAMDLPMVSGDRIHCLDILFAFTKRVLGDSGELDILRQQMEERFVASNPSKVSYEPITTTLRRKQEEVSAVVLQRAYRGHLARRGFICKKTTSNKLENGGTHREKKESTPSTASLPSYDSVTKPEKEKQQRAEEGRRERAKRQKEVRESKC
Chain of hNav1.3 (human) (Q9NY46 whole entry): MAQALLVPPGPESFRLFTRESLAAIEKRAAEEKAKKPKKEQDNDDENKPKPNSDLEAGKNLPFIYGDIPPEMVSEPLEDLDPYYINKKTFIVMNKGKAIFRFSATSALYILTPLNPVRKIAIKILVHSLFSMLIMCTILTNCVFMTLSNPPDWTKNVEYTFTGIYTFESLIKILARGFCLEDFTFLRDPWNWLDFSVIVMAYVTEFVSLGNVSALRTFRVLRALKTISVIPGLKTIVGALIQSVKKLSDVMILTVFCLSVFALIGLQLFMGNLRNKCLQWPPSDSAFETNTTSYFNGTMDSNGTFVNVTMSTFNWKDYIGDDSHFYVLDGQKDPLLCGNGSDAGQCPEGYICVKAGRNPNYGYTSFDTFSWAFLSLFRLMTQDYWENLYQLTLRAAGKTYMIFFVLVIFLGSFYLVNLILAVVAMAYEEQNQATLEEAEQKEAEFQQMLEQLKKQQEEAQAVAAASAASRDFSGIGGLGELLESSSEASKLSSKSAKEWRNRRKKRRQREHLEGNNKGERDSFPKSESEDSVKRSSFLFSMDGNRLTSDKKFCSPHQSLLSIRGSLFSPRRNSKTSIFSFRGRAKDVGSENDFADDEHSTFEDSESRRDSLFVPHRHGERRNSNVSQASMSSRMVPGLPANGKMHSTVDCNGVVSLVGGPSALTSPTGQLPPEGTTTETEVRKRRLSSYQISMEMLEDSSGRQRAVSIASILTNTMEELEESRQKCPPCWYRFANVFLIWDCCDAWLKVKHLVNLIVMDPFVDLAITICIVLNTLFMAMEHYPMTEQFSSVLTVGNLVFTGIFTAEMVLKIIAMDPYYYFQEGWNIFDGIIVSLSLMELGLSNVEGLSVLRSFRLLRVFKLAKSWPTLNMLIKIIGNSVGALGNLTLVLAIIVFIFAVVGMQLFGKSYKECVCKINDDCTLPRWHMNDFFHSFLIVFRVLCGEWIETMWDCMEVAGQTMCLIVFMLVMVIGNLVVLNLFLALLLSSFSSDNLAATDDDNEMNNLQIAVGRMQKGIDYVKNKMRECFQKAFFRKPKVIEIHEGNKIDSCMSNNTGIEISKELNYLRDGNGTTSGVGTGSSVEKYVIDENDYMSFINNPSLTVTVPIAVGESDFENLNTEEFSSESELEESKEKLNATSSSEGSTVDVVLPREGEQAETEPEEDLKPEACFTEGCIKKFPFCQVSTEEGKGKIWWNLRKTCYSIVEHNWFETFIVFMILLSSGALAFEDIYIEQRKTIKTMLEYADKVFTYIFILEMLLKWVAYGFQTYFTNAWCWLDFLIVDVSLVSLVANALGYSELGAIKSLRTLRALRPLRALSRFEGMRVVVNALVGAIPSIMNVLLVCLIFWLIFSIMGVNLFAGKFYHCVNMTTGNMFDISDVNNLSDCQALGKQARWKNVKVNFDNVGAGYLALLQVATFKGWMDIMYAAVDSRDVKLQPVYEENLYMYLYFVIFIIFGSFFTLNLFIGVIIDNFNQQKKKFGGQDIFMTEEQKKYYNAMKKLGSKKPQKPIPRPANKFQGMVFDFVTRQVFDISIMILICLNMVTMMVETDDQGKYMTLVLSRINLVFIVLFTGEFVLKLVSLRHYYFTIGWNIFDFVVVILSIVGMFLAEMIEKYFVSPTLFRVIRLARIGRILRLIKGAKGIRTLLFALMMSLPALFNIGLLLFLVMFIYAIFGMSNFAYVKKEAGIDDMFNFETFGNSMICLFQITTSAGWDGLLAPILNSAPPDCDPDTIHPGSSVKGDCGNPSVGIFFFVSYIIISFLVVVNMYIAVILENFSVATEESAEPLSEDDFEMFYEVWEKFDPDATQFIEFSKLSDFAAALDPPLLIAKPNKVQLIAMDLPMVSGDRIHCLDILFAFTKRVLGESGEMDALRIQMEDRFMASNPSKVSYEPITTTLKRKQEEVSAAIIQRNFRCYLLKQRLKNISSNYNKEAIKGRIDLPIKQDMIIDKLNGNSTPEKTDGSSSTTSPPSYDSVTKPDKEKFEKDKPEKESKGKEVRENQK

As to Ac-Pnc1a (peptide), the IC50, membrane potential assay was above 30 µM in assay [1]; 5 µM in assay [2]; 23 µM in assay [3]; 14 µM in assay [4]; 16 µM in assay [5]; above 30 µM in assay [6]. Besides, in assay [7], the IC50, membrane potential assay came out at 8 µM.

With Pnc1a-CONH2 (peptide), the IC50, membrane potential assay in assay [1] was above 30 µM; in assay [2] it was 3 µM; in assay [3] it was 8 µM; in assay [4], 16 µM; in assay [5] it was 20 µM; in assay [6], above 30 µM. Besides, the IC50, membrane potential assay in assay [7] amounted to 7 µM.

These data come from patent publication US20190359662A1.
